Results published in paper PMC12287301, “DSK2-mediated degradation of F-box protein LAO1 and class I TCPs modulates the nitrogen starvation response” (EMBO Reports, 2025).

B1: GST-DSK2B CT (domain or fragment, Arabidopsis thaliana, UniProt Q9SII8 237-551, looked up)
chain: MRNTDRAMSNIESMPEGFNMLRRMYENVQEPLMNATTMSGNAGNNTGSNPFAALLGNQGVTTQGSDASNNSSTPNAGTGTIPNANPLPNPWGATGGQTTAPGRTNVGGDARSPGLGGLGGLGSLGGLGGLGMLGADSPLGATPDASQLSQLLQNPAISQMMQSVFSNPQYMNQLMSLNPQLRSMLDSNPQLREMMQNPDFLRQFSSPEMMQQMMTLQQSLSQNRNTASQDAGQTGAATGNNGGLDLLMNMFGSLGAGGLSGTNQSNVPPEERYATQLQQLQEMGFYDRAENIRALLATNGNVNAAVERLLGSIGQ
notes: DSK2B (AT2G17200), Arabidopsis thaliana, C-terminus (DSK2BCT); the limits 237 to 552 a.a. are printed for the two-hybrid construct DSK2B-CT of the same name; Cloned into EcoRI-digested pGEX-4T-1; also called pGEX-4T-1-DSK2CT; source: E. coli Rosetta (DE3), purified (GST agarose)
B2: His-TCP21 (natural protein)
chain: not shown
notes: TCP21 (AT5G08330), Arabidopsis thaliana; Cloned into BamHI/SalI-digested pET32a; also called recombinant His-TCP21; pET32a-TCP21; source: E. coli Rosetta (DE3), purified (Ni-NTA agarose)
B3: His-TCP7 (natural protein)
chain: not shown
notes: TCP7 (AT5G23280), Arabidopsis thaliana; Cloned into BamHI/SalI-digested pET32a; also called recombinant His-TCP7; pET32a-TCP7; source: E. coli Rosetta (DE3), purified (Ni-NTA agarose)

Columns and labels:
Experiment in all cases: pull-down; GST pull-down: GST or GST-DSK2BCT incubated with His-tagged TCP in 50 mM Tris-HCl pH 7.5, 150 mM NaCl, 0.5% Triton X-100, 1 mM PMSF at 4 C for 3 h, then GST beads 1 h; blots anti-GST and anti-His
Conditions in all cases: both partners purified
His-TCP14 = target: T1, His-TCP14 (Arabidopsis thaliana, UniProt Q93Z00 1-489)
T1 construct: TCP14 (AT3G47620), Arabidopsis thaliana; Cloned into BamHI/SalI-digested pET32a; also called recombinant His-TCP14; pET32a-TCP14; source: E. coli Rosetta (DE3), purified (Ni-NTA agarose)

His-TCP15 = target: T2, His-TCP15 (Arabidopsis thaliana, UniProt Q9C9L2 1-325)
T2 construct: TCP15 (AT1G69690), Arabidopsis thaliana; Cloned into BamHI/SalI-digested pET32a; also called recombinant His-TCP15; pET32a-TCP15; source: E. coli Rosetta (DE3), purified (Ni-NTA agarose)

GST-DSK2B CT = target: B1

T1 sequence (Q93Z00 whole entry): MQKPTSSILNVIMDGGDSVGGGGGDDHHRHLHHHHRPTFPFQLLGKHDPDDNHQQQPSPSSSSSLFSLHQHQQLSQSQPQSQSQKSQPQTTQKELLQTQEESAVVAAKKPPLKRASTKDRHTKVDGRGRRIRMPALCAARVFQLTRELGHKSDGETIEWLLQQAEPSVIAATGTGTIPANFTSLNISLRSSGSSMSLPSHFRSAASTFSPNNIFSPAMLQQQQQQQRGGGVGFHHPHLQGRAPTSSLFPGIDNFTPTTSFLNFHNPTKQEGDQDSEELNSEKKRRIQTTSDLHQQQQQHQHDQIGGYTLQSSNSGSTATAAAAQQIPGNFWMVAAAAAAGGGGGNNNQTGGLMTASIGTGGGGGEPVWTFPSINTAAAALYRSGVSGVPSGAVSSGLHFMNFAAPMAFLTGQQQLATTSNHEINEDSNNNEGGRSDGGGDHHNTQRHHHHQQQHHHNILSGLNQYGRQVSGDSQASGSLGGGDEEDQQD

binding result (His-TCP14) | binding result (His-TCP15) | binding result (GST-DSK2B CT) | Binder
binds | binds |  | B1
 |  | binds | B2
 |  | binds | B3
